Experimental data reported in patent publication US20250215412A1 (NOVOZYMES A S, published 2025).

T1: Chryseobacterium sp-62563 deamidase Q126F (Chryseobacterium sp-62563)
T1 sequence: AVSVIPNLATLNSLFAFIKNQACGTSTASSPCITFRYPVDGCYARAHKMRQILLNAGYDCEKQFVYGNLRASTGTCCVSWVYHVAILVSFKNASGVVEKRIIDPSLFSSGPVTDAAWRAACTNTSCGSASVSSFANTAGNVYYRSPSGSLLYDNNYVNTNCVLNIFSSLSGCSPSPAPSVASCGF

T2: Chryseobacterium sp-62563 deamidase Q160D (Chryseobacterium sp-62563)
T2 sequence: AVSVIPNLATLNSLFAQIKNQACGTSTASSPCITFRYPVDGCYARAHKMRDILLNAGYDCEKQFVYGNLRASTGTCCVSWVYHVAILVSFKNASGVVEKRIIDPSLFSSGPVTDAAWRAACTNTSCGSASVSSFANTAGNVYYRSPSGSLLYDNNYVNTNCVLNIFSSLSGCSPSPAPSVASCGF

T3: Chryseobacterium sp-62563 deamidase Q172I (Chryseobacterium sp-62563)
T3 sequence: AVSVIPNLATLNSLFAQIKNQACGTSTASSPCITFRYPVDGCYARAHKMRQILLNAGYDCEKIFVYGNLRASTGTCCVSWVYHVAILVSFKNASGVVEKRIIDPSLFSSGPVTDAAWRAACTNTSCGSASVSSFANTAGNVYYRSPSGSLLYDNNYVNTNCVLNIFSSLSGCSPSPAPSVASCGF

T4: Chryseobacterium sp-62563 deamidase V190D (Chryseobacterium sp-62563)
T4 chain: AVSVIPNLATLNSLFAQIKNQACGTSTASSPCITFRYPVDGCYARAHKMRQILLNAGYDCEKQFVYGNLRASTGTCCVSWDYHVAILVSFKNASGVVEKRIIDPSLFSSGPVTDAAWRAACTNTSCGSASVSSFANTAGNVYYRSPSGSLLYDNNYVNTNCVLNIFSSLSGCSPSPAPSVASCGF

T5: Chryseobacterium sp-62563 deamidase V190F (Chryseobacterium sp-62563)
T5 chain: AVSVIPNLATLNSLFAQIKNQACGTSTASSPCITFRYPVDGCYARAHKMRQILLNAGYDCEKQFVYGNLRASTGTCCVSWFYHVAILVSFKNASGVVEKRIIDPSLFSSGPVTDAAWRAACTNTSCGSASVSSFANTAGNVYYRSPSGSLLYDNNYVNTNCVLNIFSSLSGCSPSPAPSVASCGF

T6: Chryseobacterium sp-62563 deamidase V190G (Chryseobacterium sp-62563)
T6 chain: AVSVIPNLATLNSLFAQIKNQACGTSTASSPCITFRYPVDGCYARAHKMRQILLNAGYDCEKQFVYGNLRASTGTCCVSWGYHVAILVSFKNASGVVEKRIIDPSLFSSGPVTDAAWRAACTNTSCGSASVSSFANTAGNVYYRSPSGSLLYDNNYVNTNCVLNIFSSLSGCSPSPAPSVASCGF

T7: Chryseobacterium sp-62563 deamidase V190K (Chryseobacterium sp-62563)
T7 chain: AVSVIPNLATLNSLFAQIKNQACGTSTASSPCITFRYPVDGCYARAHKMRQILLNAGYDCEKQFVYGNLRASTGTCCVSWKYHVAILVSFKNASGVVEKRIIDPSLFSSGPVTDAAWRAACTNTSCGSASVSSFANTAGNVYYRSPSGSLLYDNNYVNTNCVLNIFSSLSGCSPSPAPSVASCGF

T8: Chryseobacterium sp-62563 deamidase V190M (Chryseobacterium sp-62563)
T8 chain: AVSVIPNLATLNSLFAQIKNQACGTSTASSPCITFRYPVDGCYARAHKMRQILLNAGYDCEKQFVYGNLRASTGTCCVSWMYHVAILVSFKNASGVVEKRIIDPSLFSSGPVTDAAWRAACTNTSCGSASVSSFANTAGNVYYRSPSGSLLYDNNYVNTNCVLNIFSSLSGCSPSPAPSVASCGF

T9: Chryseobacterium sp-62563 deamidase V190P (Chryseobacterium sp-62563)
T9 chain: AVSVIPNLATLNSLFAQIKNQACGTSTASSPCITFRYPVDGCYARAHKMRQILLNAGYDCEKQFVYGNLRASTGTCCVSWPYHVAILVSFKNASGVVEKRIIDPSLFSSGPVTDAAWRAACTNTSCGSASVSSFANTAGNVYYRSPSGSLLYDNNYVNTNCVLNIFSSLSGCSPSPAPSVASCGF

T10: Chryseobacterium sp-62563 deamidase V190Q (Chryseobacterium sp-62563)
T10 chain: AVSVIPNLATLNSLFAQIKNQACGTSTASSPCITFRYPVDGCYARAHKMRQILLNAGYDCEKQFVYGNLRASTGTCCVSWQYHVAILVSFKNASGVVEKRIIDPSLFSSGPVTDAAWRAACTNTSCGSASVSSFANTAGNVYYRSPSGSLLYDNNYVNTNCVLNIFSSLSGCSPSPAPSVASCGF

T11: Chryseobacterium sp-62563 deamidase S258E (Chryseobacterium sp-62563)
T11 chain: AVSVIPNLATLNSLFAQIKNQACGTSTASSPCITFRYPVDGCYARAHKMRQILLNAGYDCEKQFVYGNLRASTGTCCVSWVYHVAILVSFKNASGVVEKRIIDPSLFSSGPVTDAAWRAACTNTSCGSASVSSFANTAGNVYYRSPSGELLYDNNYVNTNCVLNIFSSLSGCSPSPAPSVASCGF

T12: Chryseobacterium sp-62563 deamidase Y261P (Chryseobacterium sp-62563)
T12 chain: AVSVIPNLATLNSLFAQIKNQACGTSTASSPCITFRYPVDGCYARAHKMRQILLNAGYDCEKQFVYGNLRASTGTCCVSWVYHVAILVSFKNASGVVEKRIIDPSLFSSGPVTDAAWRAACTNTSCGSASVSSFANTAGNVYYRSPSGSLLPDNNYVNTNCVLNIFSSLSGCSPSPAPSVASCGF


Assays:
Assay in all cases: cell-based or functional assay
[1] = target: T1, Chryseobacterium sp-62563 deamidase Q126F (Chryseobacterium sp-62563)
[2] = target: T2, Chryseobacterium sp-62563 deamidase Q160D (Chryseobacterium sp-62563)
[3] = target: T3, Chryseobacterium sp-62563 deamidase Q172I (Chryseobacterium sp-62563)
[4] = target: T4, Chryseobacterium sp-62563 deamidase …
[5] = target: T5, Chryseobacterium sp-62563 deamidase …
[6] = target: T6, Chryseobacterium sp-62563 deamidase …
[7] = target: T7, Chryseobacterium sp-62563 deamidase …
[8] = target: T8, Chryseobacterium sp-62563 deamidase …
[9] = target: T9, Chryseobacterium sp-62563 deamidase …
[10] = target: T10, Chryseobacterium sp-62563 deamidase …
[11] = target: T11, Chryseobacterium sp-62563 deamidase …
[12] = target: T12, Chryseobacterium sp-62563 deamidase …

Row | Relative activity of maturated deamidase (% initial rate) [1] | Relative activity of maturated deamidase (% initial rate) [2] | Relative activity of maturated deamidase (% initial rate) [3] | Relative activity of maturated deamidase [4] | Relative activity of maturated deamidase [5] | Relative activity of maturated deamidase [6] | Relative activity of maturated deamidase [7] | Relative activity of maturated deamidase [8] | Relative activity of maturated deamidase [9] | Relative activity of maturated deamidase [10] | Relative activity of maturated deamidase [11] | Relative activity of maturated deamidase [12] | Binder
1 | 52 | > 100 | 31 |  |  |  |  |  |  |  |  |  | Chryseobacterium sp-62563 propeptide F99A (protein) NQDPNLVAKESNETAMKDFGKTVPVGIEKEDGKFKISFMVTAQPYEIKDSKENAAYISMIKTAVENETPIHVFLKANTNEIAKVDKATDDDIRYFKSVATKEVKEENRK
2 |  |  |  | 30 % initial rate | ≥ 100 % initial rate | ≥ 100 % initial rate | 36 % initial rate | 44 % initial rate | 32 % initial rate | 96 % initial rate | ≥ 100 % initial rate | 32 % initial rate | Chryseobacterium sp-62563 propeptide (first polypeptide, propeptide domain), wildtype (other) NQDPNLVAKESNETAMKDFGKTVPVGIEKEDGKFKISFMVTAQPYEIKDSKENAAYISMIKTAVENETPIHVFLKANTNEIAKVDKATDDDIRYFKSVFTKEVKEENRK
